The record followed here is US20240352133A1.

Assay [1] has as its target Recombinant human his-tagged IGF 1R extracellular domain protein (human) (UniProt P08069). Briefly: SPR, captured antibody, dissociation at pH 6. On the technique in general: Surface plasmon resonance follows binding to a sensor surface in real time, without labels.
Assay [2] has the same target. Briefly: SPR, captured antibody, pH 7.4.

B1: VRDN-03100 (second entry of that label; VH and VL pair SEQ ID NO: 223) (antibody, V domains shown)
VH: QVQLVESGGGVVQPGRSLRLSCAASGFTFSSYSMHWVRQAPGKGLEWVAIIWFDGSSKYYPGSVKGRFTISRDNSKNTLYLQMNSLRAEDTAVYYCARELGRRYFDIWGRGTLVTVSS
VL: EIVLTQSPATLSLSPGERATLSCRASQGVSSYLAWYQQKPGQAPRLLIYGASTRATGIPARFSGSGSGTDFTLTISSLEPEDFAVYYCQQRSRWPPWTFGQGTKLEIK
For the molecule B1, in assay [1], the Kd came to 1.69 nM, the koff was found to be 0.00107 s⁻¹ and the kon came out at 630000 M⁻¹ s⁻¹. Also, in assay [2], the Kd was found to be 5.52 nM, the koff is 0.00134 s⁻¹ and the kon amounted to 244000 M⁻¹ s⁻¹.

B2: VRDN-03104 (antibody, V domains shown)
VH: QVQLVESGGGVVQPGRSLRLSCAASGFTFSDHYMDWVRQAPGKGLEWVAIIWFDGSSKYYADSVKGRFTISRDNSKNTLYLQMNSLRAEDTAVYYCARELGRRYFDIWGRGTLVTVSS
VL: EIVLTQSPATLSLSPGERATLSCRASQGVSSYLAWYQQKPGQAPRLLIYGASTRATGIPARFSGSGSGTDFTLTISSLEPEDFAVYYCQQRSRWPPWTFGQGTKLEIK
For B2, in assay [1], the Kd stood at 1.63 nM, the koff came out at 0.000283 s⁻¹ and the kon turned out to be 173000 M⁻¹ s⁻¹. Also, in assay [2], the Kd is 3.05 nM, the koff was determined as 0.000259 s⁻¹ and the kon stood at 85000 M⁻¹ s⁻¹.

B3: VRDN-03107 (antibody, V domains shown)
VH: QVQLVESGGGVVQPGRSLRLSCAASGFTFSSYSMHWVRQAPGKGLEWVAIIWFDGSSKYYADSVKGRFTISRDNSKNTLYLQMNSLRAEDTAVYYCARELGRRYFDIWGRGTLVTVSS
VL: EIVMTQSPATLSVSPGERATLSCRASQGVSSYLAWYQQKPGQAPRLLIYGASTRATGIPARFSGSGSGTEFTLTISSLQSEDFAVYYCQQRSRWPPWTFGQGTKLEIK
With B3, in assay [1], the Kd stood at 1.42 nM, the koff is 0.000344 s⁻¹ and the on-rate constant (kon) turned out to be 242000 M⁻¹ s⁻¹. For the same molecule, in assay [2], the Kd is 2.69 nM, the koff is 0.000156 s⁻¹ and the kon is 58000 M⁻¹ s⁻¹.

B4: VRDN-03111 (antibody, V domains shown)
VH: QVQLVESGGGVVQPGRSLRLSCAASGFTFSDYTMHWVRQAPGKGLEWVAIIWFDGSSKYYVDSVKGRFTISRDNSKNTLYLQMNSLRAEDTAVYYCARELGRRYFDIWGRGTLVTVSS
VL: EIVMTQSPATLSVSPGERATLSCRASQGVSSYLAWYQQKPGQAPRLLIYGASTRATGIPARFSGSGSGTEFTLTISSLQSEDFAVYYCQQRSRWPPWTFGQGTKLEIK
For the molecule B4, in assay [1], the Kd is 2.06 nM, the koff is 0.000479 s⁻¹ and the kon stood at 233000 M⁻¹ s⁻¹. Besides, in assay [2], the Kd is 4.71 nM, the koff turned out to be 0.000362 s⁻¹ and the kon was determined as 77000 M⁻¹ s⁻¹.

B5: VRDN-03103 (antibody, V domains shown)
VH: QVQLVESGGGVVQPGRSLRLSCAASGFTFSDYTMHWVRQAPGKGLEWVAIIWFDGSSKYYPGSVKGRFTISRDNSKNTLYLQMNSLRAEDTAVYYCARELGRRYFDIWGRGTLVTVSS
VL: EIVLTQSPATLSLSPGERATLSCRASQGVSSYLAWYQQKPGQAPRLLIYGASTRATGIPARFSGSGSGTDFTLTISSLEPEDFAVYYCQQRSRWPPWTFGQGTKLEIK
Turning to B5, in assay [1], the Kd turned out to be 1.44 nM, the koff stood at 0.00216 s⁻¹ and the kon worked out at 1.5e+06 M⁻¹ s⁻¹. In assay [2], the Kd turned out to be 12.8 nM, the koff was 0.00637 s⁻¹ and the kon amounted to 498000 M⁻¹ s⁻¹.

B6: VRDN-03108 (antibody, V domains shown)
VH: QVQLVESGGGVVQPGRSLRLSCAASGFTFSSYSMHWVRQAPGKGLEWVAIIWFDGSSKYYVDSVKGRFTISRDNSKNTLYLQMNSLRAEDTAVYYCARELGRRYFDIWGRGTLVTVSS
VL: EIVMTQSPATLSVSPGERATLSCRASQGVSSYLAWYQQKPGQAPRLLIYGASTRATGIPARFSGSGSGTEFTLTISSLQSEDFAVYYCQQRSRWPPWTFGQGTKLEIK
As for B6, in assay [1], the Kd was 1.85 nM, the koff came out at 0.000413 s⁻¹ and the kon stood at 224000 M⁻¹ s⁻¹. In addition, in assay [2], the Kd is 3.97 nM, the koff stood at 0.000195 s⁻¹ and the kon amounted to 49000 M⁻¹ s⁻¹.

B7: VRDN-03113 (antibody, V domains shown)
VH: QVQLVESGGGVVQPGRSLRLSCAASGFTFSDHYMDWVRQAPGKGLEWVAIIWFDGSSKYYADSVKGRFTISRDNSKNTLYLQMNSLRAEDTAVYYCARELGRRYFDIWGRGTLVTVSS
VL: EIVMTQSPATLSVSPGERATLSCRASQGVSSYLAWYQQKPGQAPRLLIYGASTRATGIPARFSGSGSGTEFTLTISSLQSEDFAVYYCQQRSRWPPWTFGQGTKLEIK
As to B7, in assay [1], the Kd turned out to be 2.48 nM, the koff was 0.00191 s⁻¹ and the kon worked out at 771000 M⁻¹ s⁻¹. Also, in assay [2], the Kd was found to be 2.76 nM, the koff came out at 0.00388 s⁻¹ and the kon was determined as 1.41e+06 M⁻¹ s⁻¹.

B8: VRDN-03101 (antibody, V domains shown)
VH: QVQLVESGGGVVQPGRSLRLSCAASGFTFSDYTMHWVRQAPGKGLEWVAIIWFDGSSKYYADSVKGRFTISRDNSKNTLYLQMNSLRAEDTAVYYCARELGRRYFDIWGRGTLVTVSS
VL: EIVLTQSPATLSLSPGERATLSCRASQGVSSYLAWYQQKPGQAPRLLIYGASTRATGIPARFSGSGSGTDFTLTISSLEPEDFAVYYCQQRSRWPPWTFGQGTKLEIK
Consider B8, for which, in assay [1], the Kd came to 1.23 nM, the koff stood at 0.000268 s⁻¹ and the kon stood at 219000 M⁻¹ s⁻¹. Also, in assay [2], the Kd amounted to 0.785 nM, the koff turned out to be 7.02e-05 s⁻¹ and the kon was 89300 M⁻¹ s⁻¹.

B9: VRDN-03110 (antibody, V domains shown)
VH: QVQLVESGGGVVQPGRSLRLSCAASGFTFSDYTMHWVRQAPGKGLEWVAIIWFDGSSKYYADSVKGRFTISRDNSKNTLYLQMNSLRAEDTAVYYCARELGRRYFDIWGRGTLVTVSS
VL: EIVMTQSPATLSVSPGERATLSCRASQGVSSYLAWYQQKPGQAPRLLIYGASTRATGIPARFSGSGSGTEFTLTISSLQSEDFAVYYCQQRSRWPPWTFGQGTKLEIK
For the molecule B9, in assay [1], the Kd came out at 1.7 nM, the koff was 0.000378 s⁻¹ and the kon came to 223000 M⁻¹ s⁻¹. In addition, in assay [2], the Kd stood at 3.45 nM, the koff came out at 0.000209 s⁻¹ and the kon came out at 60500 M⁻¹ s⁻¹.

B10: VRDN-03106 (antibody, V domains shown)
VH: QVQLVESGGGVVQPGRSLRLSCAASGFTFSDHYMDWVRQAPGKGLEWVAIIWFDGSSKYYPGSVKGRFTISRDNSKNTLYLQMNSLRAEDTAVYYCARELGRRYFDIWGRGTLVTVSS
VL: EIVLTQSPATLSLSPGERATLSCRASQGVSSYLAWYQQKPGQAPRLLIYGASTRATGIPARFSGSGSGTDFTLTISSLEPEDFAVYYCQQRSRWPPWTFGQGTKLEIK
Consider B10, for which, in assay [1], the Kd is 1.81 nM, the koff came out at 0.00218 s⁻¹ and the kon was 1.2e+06 M⁻¹ s⁻¹. In addition, in assay [2], the Kd was 16.1 nM, the koff is 0.00105 s⁻¹ and the kon worked out at 65100 M⁻¹ s⁻¹.

B11: VRDN-03109 (antibody, V domains shown)
VH: QVQLVESGGGVVQPGRSLRLSCAASGFTFSSYSMHWVRQAPGKGLEWVAIIWFDGSSKYYPGSVKGRFTISRDNSKNTLYLQMNSLRAEDTAVYYCARELGRRYFDIWGRGTLVTVSS
VL: EIVMTQSPATLSVSPGERATLSCRASQGVSSYLAWYQQKPGQAPRLLIYGASTRATGIPARFSGSGSGTEFTLTISSLQSEDFAVYYCQQRSRWPPWTFGQGTKLEIK
On to B11, for which, in assay [1], the Kd was 2.72 nM, the koff turned out to be 0.00049 s⁻¹ and the kon worked out at 180000 M⁻¹ s⁻¹. In addition, in assay [2], the Kd is 6.74 nM, the koff came to 0.000286 s⁻¹ and the kon was found to be 42500 M⁻¹ s⁻¹.

B12: VRDN-03105 (antibody, V domains shown)
VH: QVQLVESGGGVVQPGRSLRLSCAASGFTFSDHYMDWVRQAPGKGLEWVAIIWFDGSSKYYVDSVKGRFTISRDNSKNTLYLQMNSLRAEDTAVYYCARELGRRYFDIWGRGTLVTVSS
VL: EIVLTQSPATLSLSPGERATLSCRASQGVSSYLAWYQQKPGQAPRLLIYGASTRATGIPARFSGSGSGTDFTLTISSLEPEDFAVYYCQQRSRWPPWTFGQGTKLEIK
As to B12, in assay [1], the Kd was determined as 1.99 nM, the koff is 0.000281 s⁻¹ and the kon came out at 141000 M⁻¹ s⁻¹. Also, in assay [2], the Kd was found to be 0.89 nM, the koff is 0.000361 s⁻¹ and the kon came to 405000 M⁻¹ s⁻¹.

B13: VRDN-03102 (antibody, V domains shown)
VH: QVQLVESGGGVVQPGRSLRLSCAASGFTFSDYTMHWVRQAPGKGLEWVAIIWFDGSSKYYVDSVKGRFTISRDNSKNTLYLQMNSLRAEDTAVYYCARELGRRYFDIWGRGTLVTVSS
VL: EIVLTQSPATLSLSPGERATLSCRASQGVSSYLAWYQQKPGQAPRLLIYGASTRATGIPARFSGSGSGTDFTLTISSLEPEDFAVYYCQQRSRWPPWTFGQGTKLEIK
On to B13, for which, in assay [1], the Kd was found to be 1.46 nM, the koff came to 0.000319 s⁻¹ and the kon is 218000 M⁻¹ s⁻¹. In assay [2], the Kd stood at 2.68 nM, the koff was 0.000173 s⁻¹ and the kon stood at 64500 M⁻¹ s⁻¹.

B14: VRDN-03114 (antibody, V domains shown)
VH: QVQLVESGGGVVQPGRSLRLSCAASGFTFSDHYMDWVRQAPGKGLEWVAIIWFDGSSKYYVDSVKGRFTISRDNSKNTLYLQMNSLRAEDTAVYYCARELGRRYFDIWGRGTLVTVSS
VL: EIVMTQSPATLSVSPGERATLSCRASQGVSSYLAWYQQKPGQAPRLLIYGASTRATGIPARFSGSGSGTEFTLTISSLQSEDFAVYYCQQRSRWPPWTFGQGTKLEIK
Turning to B14, in assay [1], the Kd is 0.0565 nM, the koff worked out at 6.9e-06 s⁻¹ and the kon worked out at 122000 M⁻¹ s⁻¹. Further, in assay [2], the Kd came to 33.4 nM, the koff amounted to 0.000991 s⁻¹ and the kon was 29700 M⁻¹ s⁻¹.

B15: VRDN-03112 (antibody, V domains shown)
VH: QVQLVESGGGVVQPGRSLRLSCAASGFTFSDYTMHWVRQAPGKGLEWVAIIWFDGSSKYYPGSVKGRFTISRDNSKNTLYLQMNSLRAEDTAVYYCARELGRRYFDIWGRGTLVTVSS
VL: EIVMTQSPATLSVSPGERATLSCRASQGVSSYLAWYQQKPGQAPRLLIYGASTRATGIPARFSGSGSGTEFTLTISSLQSEDFAVYYCQQRSRWPPWTFGQGTKLEIK
B15: in assay [1], the Kd amounted to 2.74 nM, the koff came out at 0.000463 s⁻¹ and the kon came to 169000 M⁻¹ s⁻¹. In addition, in assay [2], the Kd came to 2.97 nM, the koff is 0.000322 s⁻¹ and the kon is 109000 M⁻¹ s⁻¹.

For orientation: Kd means the concentration at which binding is half-saturated. By koff is commonly meant the rate constant with which the complex falls apart. The term kon denotes the rate constant with which the complex forms.
